Data: publication PMC7837216, “ISRIB Blunts the Integrated Stress Response by Allosterically Antagonising the Inhibitory Effect of Phosphorylated eIF2 on eIF2B” (Molecular Cell, 2021)

Tests used:
[1] = molecular target: human eIF2B decamer, wild type (human) (UniProt Q14232); assay: fluorescence polarisation; FAM-ISRIB (2.5-5 nM) bound to eIF2B, displaced by rising eIF2(αP) (0-2.5 μM) or P-eIF2α-NTD (0-40 μM); equilibrium, 30 min at room temperature; 20 mM HEPES-KOH pH 7.4, 150 mM KCl, 2 mM MgCl2, 1 mM TCEP, 0.05 mg/mL BSA, 0.01% Triton X-100; four-parameter log[inhibitor] fit
[2] = molecular target: biotinylated, phosphorylated N-terminal domain of human eIF2α (human) (UniProt P05198); assay: BLI; as a3 but with ISRIB (1 μM) in the association and dissociation buffer
[3] = molecular target: biotinylated, phosphorylated N-terminal domain of human eIF2α (human) (UniProt P05198); assay: BLI; biotinylated P-eIF2α-NTD on streptavidin sensors, eIF2B in solution, without ISRIB (DMSO); 30°C; 20 mM HEPES pH 7.4, 150 mM KCl, 2 mM MgCl2, 1 mM TCEP, 0.05 mg/mL BSA, 0.01% Triton X-100; plateau values of 2-phase association fits against eIF2B concentration (9-150 nM)

Substance: biotinylated, phosphorylated N-terminal domain of human eIF2α (from UniProt P05198 1-187) (domain or fragment)
- IC50 [1]: 3000 nM

Substance: human eIF2B decamer, wild type (from UniProt Q14232 1-305; P49770 1-351; Q9NR50 1-452; Q9UI10 1-523; Q13144 1-721) (complex)
- K1/2max [2]: 29.8 nM
- K1/2max [3]: 15.2 nM

Substance: phosphorylated human eIF2 trimer, eIF2(αP) (from UniProt P05198 1-315; P20042 1-333; P41091 1-472) (complex)
- IC50 [1]: 250 nM
